Values joined by “and” are separate entries in the source; they are usually repeats but may differ in a detail not shown here. Identical values can stand only once.
Tests used:
Experiment in all cases: cell-based or functional assay
[1] = biological target: HIV-1 Env of pseudovirus MGRM-C-26 (HIV-1)
[2] = biological target: HIV-1 Env of pseudovirus 92TH021 (HIV-1)
[3] = biological target: HIV-1 Env of pseudovirus JRCSF (HIV-1) (UniProt P20871)
[4] = biological target: HIV-1 Env of isolate MGRM-G-004 (subtype G), on pseudovirus (HIV-1)
[5] = biological target: HIV-1 Env of isolate MGRM-G-019 (subtype G), on pseudovirus (HIV-1)
[6] = biological target: HIV-1 Env of isolate MGRM-G-009 (subtype G), on pseudovirus (HIV-1)
[7] = biological target: HIV-1 Env of isolate 6535.3 (subtype B) (HIV-1)
[8] = biological target: aMLV envelope, on pseudovirus (negative control)
[9] = biological target: HIV-1 Env of isolate 92BR020 (subtype B) (HIV-1)
[10] = biological target: HIV-1 Env of isolate MGRM-G-001 (subtype G), on pseudovirus (HIV-1)
[11] = biological target: HIV-1 Env of isolate MGRM-G-011 (subtype G), on pseudovirus (HIV-1)
[12] = biological target: HIV-1 Env of isolate MGRM-G-006 (subtype G), on pseudovirus (HIV-1)
[13] = biological target: HIV-1 Env of isolate MGRM-G-015 (subtype G), on pseudovirus (HIV-1)
[14] = biological target: HIV-1 Env of isolate MGRM-G-016 (subtype G), on pseudovirus (HIV-1)
[15] = biological target: HIV-1 Env of isolate MGRM-G-028 (subtype G), on pseudovirus (HIV-1)
[16] = biological target: HIV-1 Env of isolate MGRM-G-025 (subtype G), on pseudovirus (HIV-1)
[17] = biological target: HIV-1 Env of isolate 93TH305 (subtype B) (HIV-1)
[18] = biological target: HIV-1 Env of isolate MGRM-G-014 (subtype G), on pseudovirus (HIV-1)
[19] = biological target: HIV-1 Env of isolate MGRM-G-024 (subtype G), on pseudovirus (HIV-1)
[20] = biological target: HIV-1 Env of isolate MGRM-G-013 (subtype G), on pseudovirus (HIV-1)
[21] = biological target: HIV-1 Env of isolate MGRM-G-027 (subtype G), on pseudovirus (HIV-1)
[22] = biological target: HIV-1 Env of isolate APV 13 (subtype B) (HIV-1)
[23] = biological target: HIV-1 Env of isolate APV 6 (subtype B) (HIV-1)
[24] = biological target: HIV-1 Env of isolate MGRM-G-017 (subtype G), on pseudovirus (HIV-1)
[25] = biological target: HIV-1 Env of isolate APV_17 (subtype B) (HIV-1)

B1: PGT-125 (B cell culture well 5123_A6) (antibody, V domains shown)
VH: QSQLQESGPRLVEASETLSLTCNVSGESTGACTYFWGWVRQAPGKGLEWIGSLSHCQSFWGSGWTFHNPSLKSRLTISLDTPKNQVFLKLTSLTAADTATYYCARFDGEVLVYNHWPKPAWVDLWGRGIPVTVSS
VL: QSALTQPPSASGSPGQSITISCNGTATNFVSWYQQFPDKAPKLIIFGVDKRPPGVPDRFSGSRSGTTASLTVSRLQTDDEAVYYCGSLVGNWDVIFGGGTTLTVL
Polyclonal Transfectant Neutralization Index [1]: 88.3
Primary Neutralization Index (B cell culture supernatant) [1]: 512
Polyclonal Transfectant Neutralization Index [2]: 50.6
Primary Neutralization Index (B cell culture supernatant) [2]: 133
Polyclonal Transfectant Neutralization Index [3]: 119
Primary Neutralization Index (B cell culture supernatant) [3]: 1730

B2: PGT-131 (B cell culture well 5136_H1) (antibody, V domains shown)
VH: QVQLQESGPGLVKPSETLSLTCTVSGDSINTGHHYWGWVRQVPGKGPEWIAHIHYNTAVLHNPALKSRVTISIFTLKNLITLSLSNVTAADTAVYFCVRSGGDILYYIEWQKPHWFYPWGPGILVTVSS
VL: QSALTQPPSASGSLGQSLTISCSGTGSDIGSWNFVSWYQQFPGRAPNLIIFEVNRRRSGVPDRFSGSKSGNTASLTVSGLRSEDEAEYFCSSLSGRWDIVFGGGTKVTVL
Primary Neutralization Index (B cell culture supernatant) [1]: 1.2
Primary Neutralization Index (B cell culture supernatant) [2]: 354
Primary Neutralization Index (B cell culture supernatant) [3]: 6.2

B3: PGT-131 (antibody, V domains shown)
VH: QVQLQESGPGLVKPSETLSLTCTVSGDSINTGHHYWGWVRQVPGKGPEWIAHIHYNTAVLHNPALKSRVTISIFTLKNLITLSLSNVTAADTAVYFCVRSGGDILYYIEWQKPHWFYPWGPGILVTVSS
VL: QSALTQPPSASGSLGQSLTISCSGTGSDIGSWNFVSWYQQFPGRAPNLIIFEVNRRRSGVPDRFSGSKSGNTASLTVSGLRSEDEAEYFCSSLSGRWDIVFGGGTKVTVL
IC50 (µg/mL), neutralization of pseudovirus [4]: > 50 µg/mL
IC50 (µg/mL), neutralization of pseudovirus [5]: > 50 µg/mL
IC50 (µg/mL), neutralization of pseudovirus [6]: > 50 µg/mL
IC50 (µg/mL), pseudovirus neutralization [7]: 0.056 µg/mL
IC50 (µg/mL), neutralization of pseudovirus [8]: > 50 µg/mL
IC50 (µg/mL), pseudovirus neutralization [9]: 6.16 µg/mL
IC50 (µg/mL), neutralization of pseudovirus [10]: 0.404 µg/mL
IC50 (µg/mL), neutralization of pseudovirus [11]: > 50 µg/mL
IC50 (µg/mL), neutralization of pseudovirus [12]: > 50 µg/mL
IC50 (µg/mL), neutralization of pseudovirus [13]: > 50 µg/mL
IC50 (µg/mL), neutralization of pseudovirus [14]: > 50 µg/mL
IC50 (µg/mL), neutralization of pseudovirus [15]: 0.466 µg/mL
IC50 (µg/mL), neutralization of pseudovirus [16]: 7.75 µg/mL
IC50 (µg/mL), pseudovirus neutralization [17]: 0.016 µg/mL
IC50 (µg/mL), neutralization of pseudovirus [18]: 4.31 µg/mL
IC50 (µg/mL), neutralization of pseudovirus [19]: 10.7 µg/mL
IC50 (µg/mL), neutralization of pseudovirus [20]: > 50 µg/mL
IC50 (µg/mL), neutralization of pseudovirus [21]: 2.9 µg/mL
IC50 (µg/mL), pseudovirus neutralization [22]: 0.189 µg/mL
IC50 (µg/mL), pseudovirus neutralization [23]: > 50 µg/mL
IC50 (µg/mL), neutralization of pseudovirus [24]: > 50 µg/mL
IC50 (µg/mL), pseudovirus neutralization [25]: > 50 µg/mL

B4: PGT-130 (B cell culture well 5147_N6) (antibody, V domains shown)
VH: QVQLQESGPGLVKPAETLSLTCSVSGESINTGHYYWGWVRQVPGKGLEWIGHIHYTTAVLHNPSLKSRLTIKIYTLRNQITLRLSNVTAADTAVYHCVRSGGDILYYYEWQKPHWFSPWGPGIHVTVSS
VL: QSALTQPPSASGSLGQSVTISCNGTSSDIGGWNFVSWYQQFPGRAPRLIIFEVNKRPSGVPGRFSGSKSGNSASLTVSGLQSDDEGQYFCSSLFGRWDVVFGGGTKLTVL
Polyclonal Transfectant Neutralization Index [1]: 1.05
Primary Neutralization Index (B cell culture supernatant) [1]: 3
Polyclonal Transfectant Neutralization Index [2]: 4.2
Primary Neutralization Index (B cell culture supernatant) [2]: 538
Polyclonal Transfectant Neutralization Index [3]: 1.24
Primary Neutralization Index (B cell culture supernatant) [3]: 19.3

B5: PGT-135 (B cell culture wells 5343_B8 and 5344_E16) (antibody, V domains shown)
VH: QLQMQESGPGLVKPSETLSLSCTVSGDSIRGGEWGDKDYHWGWVRHSAGKGLEWIGSIHWRGTTHYKESLRRRVSMSIDTSRNWFSLRLASVTAADTAVYFCARHRHHDVFMLVPIAGWFDVWGPGVQVTVSS
VL: EIVMTQSPDTLSVSPGETVTLSCRASQNINKNLAWYQYKPGQSPRLVIFETYSKIAAFPARFVASGSGTEFTLTINNMQSEDVAVYYCQQYEEWPRTFGQGTKVDIK
Primary Neutralization Index (B cell culture supernatant) [1]: 6.5 and 3.6
Primary Neutralization Index (B cell culture supernatant) [3]: 1.8 and 1.5

B6: PGT-126 (B cell culture well 5141_B17) (antibody, V domains shown)
VH: QPQLQESGPGLVEASETLSLTCTVSGDSTAACDYFWGWVRQPPGKGLEWIGGLSHCAGYYNTGWTYHNPSLKSRLTISLDTPKNQVFLKLNSVTAADTAIYYCARFDGEVLVYHDWPKPAWVDLWGRGTLVTVSS
VL: QSALTQPPSASGSPGQSISISCTGTSNRFVSWYQQHPGKAPKLVIYGVNKRPSGVPDRFSGSKSGNTASLTVSGLQTDDEAVYYCSSLVGNWDVIFGGGTKLTVL
Polyclonal Transfectant Neutralization Index [1]: 102
Primary Neutralization Index (B cell culture supernatant) [1]: 654
Polyclonal Transfectant Neutralization Index [2]: 2.74
Primary Neutralization Index (B cell culture supernatant) [2]: 2.3
Polyclonal Transfectant Neutralization Index [3]: 102
Primary Neutralization Index (B cell culture supernatant) [3]: 1410

B7: PGT-127 (B cell culture well 5145_B14) (antibody, V domains shown)
VH: QPQLQESGPGLVEASETLSLTCTVSGDSTGRCNYFWGWVRQPPGKGLEWIGSLSHCRSYYNTDWTYHNPSLKSRLTISLDTPKNQVFLRLTSVTAADTATYYCARFGGEVLVYRDWPKPAWVDLWGRGTLVVTVS
VL: QSALTQPPSASGSPGQSITISCTGTSNNFVSWYQQYPGKAPKLVIYEVNKRPSGVPDRFSGSKSGSTASLTVSGLQADDEGVYYCSSLVGNWDVIFGGGTKLTVL
Polyclonal Transfectant Neutralization Index [1]: 2.62
Primary Neutralization Index (B cell culture supernatant) [1]: 86.9
Polyclonal Transfectant Neutralization Index [2]: 0.94
Primary Neutralization Index (B cell culture supernatant) [2]: 1
Polyclonal Transfectant Neutralization Index [3]: 1.61
Primary Neutralization Index (B cell culture supernatant) [3]: 31.1

B8: PGT-128 (B cell culture well 5114_A19) (antibody, V domains shown)
VH: QPQLQESGPTLVEASETLSLTCAVSGDSTAACNSFWGWVRQPPGKGLEWVGSLSHCASYWNRGWTYHNPSLKSRLTLALDTPKNLVFLKLNSVTAADTATYYCARFGGEVLRYTDWPKPAWVDLWGRGTLVTVSS
VL: QSALTQPPSASGSPGQSITISCTGTSNNFVSWYQQHAGKAPKLVIYDVNKRPSGVPDRFSGSKSGNTASLTVSGLQTDDEAVYYCGSLVGNWDVIFGGGTKLTVL
Polyclonal Transfectant Neutralization Index [1]: 32.2
Primary Neutralization Index (B cell culture supernatant) [1]: 17.1
Polyclonal Transfectant Neutralization Index [2]: 10
Primary Neutralization Index (B cell culture supernatant) [2]: 6.6
Polyclonal Transfectant Neutralization Index [3]: 136
Primary Neutralization Index (B cell culture supernatant) [3]: 77.5

B9: PGT-136 (antibody, V domains shown)
VH: QLQLQESGPGLVKPSETLSLTCTVSGGSMRGTDWGENDFHYGWIRQSSAKGLEWIGSIHWRGRTTHYKTSFRSRATLSIDTSNNRFSLTFSFVTAADTAVYYCARHKYHDIFRVVPVAGWFDPWGQGLLVTVSS
VL: EIVMTQSPPTLSVSPGETATLSCRASQNVKNNLAWYQLKPGQAPRLLIFDASSRAGGIPDRFSGSGYGTDFTLTVNSVQSEDFGDYFCQQYEEWPRTFGQGTKVDIK
IC50 (µg/mL), neutralization of pseudovirus [4]: > 50 µg/mL
IC50 (µg/mL), neutralization of pseudovirus [5]: 44.3 µg/mL
IC50 (µg/mL), neutralization of pseudovirus [6]: > 50 µg/mL
IC50 (µg/mL), pseudovirus neutralization [7]: > 50 µg/mL
IC50 (µg/mL), neutralization of pseudovirus [8]: > 50 µg/mL
IC50 (µg/mL), pseudovirus neutralization [9]: 8.61 µg/mL
IC50 (µg/mL), neutralization of pseudovirus [10]: 8.11 µg/mL
IC50 (µg/mL), neutralization of pseudovirus [11]: > 50 µg/mL
IC50 (µg/mL), neutralization of pseudovirus [12]: > 50 µg/mL
IC50 (µg/mL), neutralization of pseudovirus [13]: > 50 µg/mL
IC50 (µg/mL), neutralization of pseudovirus [14]: > 50 µg/mL
IC50 (µg/mL), neutralization of pseudovirus [15]: > 50 µg/mL
IC50 (µg/mL), neutralization of pseudovirus [16]: > 50 µg/mL
IC50 (µg/mL), pseudovirus neutralization [17]: 20.2 µg/mL
IC50 (µg/mL), neutralization of pseudovirus [18]: > 50 µg/mL
IC50 (µg/mL), neutralization of pseudovirus [19]: 0.152 µg/mL
IC50 (µg/mL), neutralization of pseudovirus [20]: > 50 µg/mL
IC50 (µg/mL), neutralization of pseudovirus [21]: 45.2 µg/mL
IC50 (µg/mL), pseudovirus neutralization [22]: > 50 µg/mL
IC50 (µg/mL), pseudovirus neutralization [23]: > 50 µg/mL
IC50 (µg/mL), neutralization of pseudovirus [24]: > 50 µg/mL
IC50 (µg/mL), pseudovirus neutralization [25]: > 50 µg/mL
